First the molecules themselves.
B1: glmS ribozyme (parent)
chain: AUAAAAGCGCCAGAACUACAGAAAUGUAGUUGACGAGGAGGAGGUUUAUCGAAUUUUCGGCGGAUGCCUCCAAA

Holding throughout (conditions): with glucosamine-6-phosphate
In series [1] the parent is B1. As to the kind of experiment: self-cleavage kobs at 640 uM GlcN6P; higher = faster cleavage; RNA array. The procedure, abridged: (§1)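 kcat and KM were obtained from weighted Michaelis–Menten fits across concentrations of kobs values. Those came from one- or two-exponential decay fits to per-tile medians normalised to baseline and to non-cleaving reference variants. The variants were barcoded ribozymes transcribed in situ by E. coli RNA polymerase on sequenced MiSeq chips and tracked through a hybridised Cy3 probe at 37 °C, with 40 μM to 10 mM glucosamine-6-phosphate in HEPES/KCl/Mg(OAc)2 buffer flowed in.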

Series [2] covers variants of B1. In words: self-cleavage kobs at 2500 uM GlcN6P; higher = faster cleavage; RNA array. Summed up: as §1
In series [3] the parent is B1. In words: self-cleavage kobs at 10000 uM GlcN6P; higher = faster cleavage; RNA array. Summed up:
as §1

± gives the standard error. Variants at the floor of the assay were thinned out.

As for C8G A33C U55G G62U C67A, the “self-cleavage kobs at 640 uM GlcN6P” value in the series with glucosamine-6-phosphate [1] was < 1e-05 s⁻¹. Besides, the “self-cleavage kobs at 2500 uM GlcN6P” value in the series with glucosamine-6-phosphate [2] was < 1e-05 s⁻¹.

With C10U C11G A14G C16A G41A G51U, in the series with glucosamine-6-phosphate [1], the “self-cleavage kobs at 640 uM GlcN6P” value was < 1e-05 s⁻¹.

In the case of G9U C11U U30G, the “self-cleavage kobs at 640 uM GlcN6P” value in the series with glucosamine-6-phosphate [1] was < 1e-05 s⁻¹.

For the variant A23C C68U, in the series with glucosamine-6-phosphate [1], the “self-cleavage kobs at 640 uM GlcN6P” value stood at 0.00205 ± 0.00047 s⁻¹. For the same variant, the “self-cleavage kobs at 2500 uM GlcN6P” value with glucosamine-6-phosphate [2] was 0.00111 ± 0.00026 s⁻¹.

Turning to C34U C58G U65G, the “self-cleavage kobs at 640 uM GlcN6P” value with glucosamine-6-phosphate [1] was < 1e-05 s⁻¹.

As for G9A G35U U47A C70U, the “self-cleavage kobs at 640 uM GlcN6P” value with glucosamine-6-phosphate [1] was < 1e-05 s⁻¹. For the same variant, the “self-cleavage kobs at 2500 uM GlcN6P” value with glucosamine-6-phosphate [2] is < 1e-05 s⁻¹.

As to G7C G9C, the “self-cleavage kobs at 640 uM GlcN6P” value in the series with glucosamine-6-phosphate [1] is < 1e-05 s⁻¹. The “self-cleavage kobs at 2500 uM GlcN6P” value in the series with glucosamine-6-phosphate [2] was < 1e-05 s⁻¹.

On to G7C A48C C70A, for which the “self-cleavage kobs at 640 uM GlcN6P” value in the series with glucosamine-6-phosphate [1] is < 1e-05 s⁻¹.

For G41A C58U C70G, the “self-cleavage kobs at 640 uM GlcN6P” value with glucosamine-6-phosphate [1] was < 1e-05 s⁻¹. In the series with glucosamine-6-phosphate [2], the “self-cleavage kobs at 2500 uM GlcN6P” value is < 1e-05 s⁻¹.

As to A15U G41U G66U C70U, the “self-cleavage kobs at 640 uM GlcN6P” value with glucosamine-6-phosphate [1] worked out at 4.78e-05 ± 1.4e-05 s⁻¹.

As to A6G G38A C68G, the “self-cleavage kobs at 640 uM GlcN6P” value with glucosamine-6-phosphate [1] is < 1e-05 s⁻¹.

Regarding G13U G32A C70A, the “self-cleavage kobs at 640 uM GlcN6P” value with glucosamine-6-phosphate [1] came out at 5.59e-05 ± 2.4e-05 s⁻¹. In addition, in the series with glucosamine-6-phosphate [2], the “self-cleavage kobs at 2500 uM GlcN6P” value was found to be 0.000106 ± 3.2e-05 s⁻¹.

On to G9U U55C G62U, for which the “self-cleavage kobs at 640 uM GlcN6P” value with glucosamine-6-phosphate [1] was < 1e-05 s⁻¹.

Turning to G13U G29U A39G, in the series with glucosamine-6-phosphate [1], the “self-cleavage kobs at 640 uM GlcN6P” value came out at 0.000115 ± 2.8e-05 s⁻¹. Further, the “self-cleavage kobs at 2500 uM GlcN6P” value with glucosamine-6-phosphate [2] is 7.21e-05 ± 2.3e-05 s⁻¹.

Take C11A A33G G63A G66U: the “self-cleavage kobs at 640 uM GlcN6P” value with glucosamine-6-phosphate [1] is < 1e-05 s⁻¹.

Regarding G13U A39G C67A, in the series with glucosamine-6-phosphate [1], the “self-cleavage kobs at 640 uM GlcN6P” value is 9.82e-05 ± 3.9e-05 s⁻¹.

Turning to A14G G32C G63C G66U U69G, the “self-cleavage kobs at 640 uM GlcN6P” value with glucosamine-6-phosphate [1] was < 1e-05 s⁻¹. In addition, in the series with glucosamine-6-phosphate [2], the “self-cleavage kobs at 2500 uM GlcN6P” value is < 1e-05 s⁻¹.

Regarding G7U G13A G29U, the “self-cleavage kobs at 640 uM GlcN6P” value with glucosamine-6-phosphate [1] was < 1e-05 s⁻¹. In the series with glucosamine-6-phosphate [2], the “self-cleavage kobs at 2500 uM GlcN6P” value was < 1e-05 s⁻¹. Also, the “self-cleavage kobs at 10000 uM GlcN6P” value in the series with glucosamine-6-phosphate [3] is < 1e-05 s⁻¹.

On to G13C U57C C58A, for which, in the series with glucosamine-6-phosphate [1], the “self-cleavage kobs at 640 uM GlcN6P” value was < 1e-05 s⁻¹.

Turning to G9A G51U A52C, in the series with glucosamine-6-phosphate [1], the “self-cleavage kobs at 640 uM GlcN6P” value is < 1e-05 s⁻¹. Also, in the series with glucosamine-6-phosphate [2], the “self-cleavage kobs at 2500 uM GlcN6P” value is < 1e-05 s⁻¹.

For the variant G37A G41C C50U U65G, the “self-cleavage kobs at 640 uM GlcN6P” value with glucosamine-6-phosphate [1] was < 1e-05 s⁻¹. Further, the “self-cleavage kobs at 2500 uM GlcN6P” value in the series with glucosamine-6-phosphate [2] is < 1e-05 s⁻¹.

As to A36C C70G, the “self-cleavage kobs at 640 uM GlcN6P” value with glucosamine-6-phosphate [1] is 0.000124 ± 2.1e-05 s⁻¹.

As to U46G C50A C67G, the “self-cleavage kobs at 640 uM GlcN6P” value in the series with glucosamine-6-phosphate [1] came to 0.000631 ± 0.00012 s⁻¹. The “self-cleavage kobs at 2500 uM GlcN6P” value in the series with glucosamine-6-phosphate [2] came out at 0.000506 ± 0.00017 s⁻¹.

Take U45A U46C U47G C70U: in the series with glucosamine-6-phosphate [1], the “self-cleavage kobs at 640 uM GlcN6P” value was 0.000175 ± 8.3e-05 s⁻¹.

Regarding G44A C50U C67U, the “self-cleavage kobs at 640 uM GlcN6P” value with glucosamine-6-phosphate [1] was < 1e-05 s⁻¹.

On to C8A U54C A64C, for which the “self-cleavage kobs at 640 uM GlcN6P” value with glucosamine-6-phosphate [1] was < 1e-05 s⁻¹. The “self-cleavage kobs at 2500 uM GlcN6P” value with glucosamine-6-phosphate [2] was < 1e-05 s⁻¹.

G41A G51C A64C: the “self-cleavage kobs at 640 uM GlcN6P” value in the series with glucosamine-6-phosphate [1] was < 1e-05 s⁻¹.

Consider A48U U49C U55A U56C U69C, for which the “self-cleavage kobs at 640 uM GlcN6P” value in the series with glucosamine-6-phosphate [1] was < 1e-05 s⁻¹.

Turning to G32C G40C U57G, the “self-cleavage kobs at 640 uM GlcN6P” value with glucosamine-6-phosphate [1] is < 1e-05 s⁻¹.

Take A52G U55A C71A: the “self-cleavage kobs at 640 uM GlcN6P” value with glucosamine-6-phosphate [1] came to 7.88e-05 ± 2.3e-05 s⁻¹. Further, the “self-cleavage kobs at 2500 uM GlcN6P” value in the series with glucosamine-6-phosphate [2] was determined as 0.000169 ± 7.2e-05 s⁻¹.

As for G9U C10U C34G A53U G63C U65A, in the series with glucosamine-6-phosphate [1], the “self-cleavage kobs at 640 uM GlcN6P” value is < 1e-05 s⁻¹.

For the variant U31G A33C C50U U56C A64G, the “self-cleavage kobs at 640 uM GlcN6P” value in the series with glucosamine-6-phosphate [1] is < 1e-05 s⁻¹. For the same variant, the “self-cleavage kobs at 2500 uM GlcN6P” value with glucosamine-6-phosphate [2] was < 1e-05 s⁻¹.

Take A33U U55C C70U: the “self-cleavage kobs at 640 uM GlcN6P” value with glucosamine-6-phosphate [1] was < 1e-05 s⁻¹.

As to G9A U30G A39U, the “self-cleavage kobs at 640 uM GlcN6P” value with glucosamine-6-phosphate [1] was < 1e-05 s⁻¹.

Take A6G A42C U56A C61G: the “self-cleavage kobs at 640 uM GlcN6P” value in the series with glucosamine-6-phosphate [1] was < 1e-05 s⁻¹.

As for C10U C61A C67G C71G, the “self-cleavage kobs at 640 uM GlcN6P” value with glucosamine-6-phosphate [1] worked out at 0.000112 ± 3.5e-05 s⁻¹. Moreover, the “self-cleavage kobs at 2500 uM GlcN6P” value in the series with glucosamine-6-phosphate [2] amounted to 7.34e-05 ± 2.4e-05 s⁻¹.

The record behind these values is the supplement of paper PMC7125110.
